B1: VPS39 (parent)
chain: QQVKCIITEEKVCMVCKKKIGNSA
B2: GLTSCR2 (parent)
chain: YNPSFEDHQTLLSAAHEVELQRQK

Variants of: B1
Assay: protein stability index of a GFP-peptide fusion (GPS, HEK-293T) (PSI 1-6); higher = more stable
Conditions: c terminus: a fixed tail appended
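Also: lentivirally expressed fusions sorted by FACS into six bins by GFP to DsRed ratio, PSI derived from sequencing read proportions per bin multiplied by bin number.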

Protein stability index, by site and new letter:
K19: E 2.89 | N 2.15 | Q 2.19 | H 2.12 | W 1.76 | R 2.28 | M 1.67 | D 3.52 | Y 2.09 | T 2.66 | P 2.14 | G 2.48 | F 1.72 | L 2.56
A24: F 2.1 | Y 2.57 | M 2.54 | G 2.29 | T 2.93 | K 3.03 | P 3.03 | E 2.48 | D 3.35 | V 2.24 | I 2.49 | S 2.37 | N 2.84
T8: E 3.48 | C 2.48 | G 3.42 | D 3.08 | L 2.16 | R 2.45 | N 2.9 | Y 2.6 | V 2.12 | I 2.12 | Q 3.34
V15: Y 2.17 | L 2.82 | H 3.43 | A 3.32 | W 2.97 | C 3.26 | E 4.38 | T 3.68 | R 3.07 | N 3.08 | P 3.99 | M 2.83 | D 3.34 | S 3.74
Q1: H 2.59 | Y 1.64 | F 1.49 | V 1.11 | T 2.52 | G 3.05 | W 1.98 | C 2.4 | R 2.24 | E 2.67 | D 3.69
C13: H 3.62 | S 3.52 | L 3.1 | F 2.54 | W 2.6 | N 4.4 | I 3.09 | A 3.88 | Q 3.78
I6: N 3.25 | W 1.75 | P 4.07 | C 3.34 | K 3.46 | M 2.93 | T 3.38 | H 3.47 | E 3.96 | Y 2.49 | A 2.67 | L 2.45 | R 2.6 | G 2.47
K4: P 3.12 | E 3.28 | I 1.19 | T 2.44 | Q 2.77 | W 2.25 | Y 1.42 | A 2.72 | L 1.77
Q2: P 2.77 | Y 2.37 | G 2.32 | N 2.26 | C 4.17 | L 2.4 | A 2.94 | S 3.77 | T 2.61 | H 3.05 | W 2.72 | M 2.93
K11: Y 1.77 | W 2.08 | G 2.35 | L 1.87 | I 2.44 | D 2.52 | Q 2.84 | E 2.87 | T 2.55 | N 2.89 | A 3.64 | P 3.15
E10: A 1.9 | N 2.01 | I 2.34 | Q 2.29 | T 2.41 | C 3.05 | L 1.47 | M 2.4 | S 2.03 | P 2.69 | D 1.95 | W 2.44 | K 2.54 | F 1.97
K18: S 3.09 | D 3.4 | T 2.08 | V 1.78 | Y 1.41 | P 2.37 | L 2.16 | C 2.02 | H 3.24 | R 2.33 | A 2.88 | I 2.43 | F 1.98
I7: Y 3.28 | V 3.4 | H 4.39 | W 2.46 | P 4.23 | M 3.54 | S 3.06 | L 2.11 | R 2.86 | A 3.38 | Q 2.76 | C 4.47 | E 3.01 | N 2.84
K17: D 3.68 | Y 3.09 | R 2.27 | C 3.34 | P 3 | T 2.5 | H 2.46 | M 2.29 | I 1.74 | S 2.82 | V 1.54 | N 3.05 | F 2.85 | E 3.21
E9: D 3.29 | K 2.49 | W 1.35 | C 1.8 | M 1.33 | V 1.95 | G 2 | L 1.73 | N 1.87 | T 2.08 | P 2.46 | A 2.22 | R 1.54 | Q 1.85
M14: H 3.13 | T 3.3 | E 3.61 | A 2.49 | F 2.89 | P 3.15
I20: H 4.29 | S 3.67 | T 2.89 | G 2.79 | Q 3.53 | C 3.26 | M 3.33 | N 2.69 | F 3.06 | Y 3.15 | E 4.03 | L 3.15 | D 3.51 | A 3.35
G21: F 2.87 | E 3.32 | W 1.76 | I 3.17 | K 3.08 | Q 2.76 | H 2.93 | N 3.01 | V 3.1 | C 3.19 | T 2.51 | S 2.7
V3: Q 3.32 | W 1.49 | C 4.46 | H 5.16 | G 3.01 | E 3.47 | S 3.17
S23: N 2.41 | D 3.6 | C 3.62 | W 1.82 | Y 2.41 | R 2.77 | A 3.52 | G 3.05 | Q 2.5 | T 2.78 | I 1.73 | F 1.95
C16: T 3.72 | P 4.22 | M 3.13 | W 2.5 | G 4.28 | L 3.07 | R 4.5 | F 3.15 | N 3.88
V12: L 2.86 | F 2.11 | A 3.41 | R 2.88 | P 3.44 | W 1.98 | S 3.41 | E 3.96 | H 2.64 | T 2.69 | I 3.06 | K 2.94
C5: T 3.16 | D 3.86 | H 3.21 | L 2.34 | Q 3.07 | F 1.96 | G 2.82 | M 1.99 | K 3.61 | W 1.94 | N 2.79 | A 3.02
N22: L 2.57 | M 2.75 | W 1.81 | Y 1.99 | G 1.42 | K 2.79 | Q 3.38 | H 2.25

Variants of: B2
Assay: as above
Conditions: c terminus: a fixed tail appended

Protein stability index: each site, then its substitutions
Y1: A 4.93 | C 4.78 | D 5.25 | E 4.87 | F 3.65 | G 5.36 | H 5.16 | I 4.74 | K 4.87 | L 5.03 | M 4.96 | N 4.71 | P 5.16 | Q 5.07 | R 5.37 | S 5.38 | T 4.67 | V 5.11 | W 4.16
N2: A 2.13 | C 2.74 | D 5.66 | E 4.46 | F 3.81 | G 4.39 | H 2.97 | I 3.38 | K 4.28 | L 5.05 | M 4.34 | P 4.76 | Q 4.47 | R 4.29 | S 3.91 | T 3.36 | V 1.6 | W 4.2 | Y 4.29
P3: A 4.25 | C 3.37 | D 4.32 | E 5.06 | F 4.06 | G 4.35 | H 4.67 | I 3.82 | K 4.3 | L 4.3 | M 4.08 | N 4.45 | Q 5.13 | R 3.85 | S 4.28 | T 5.01

Reference: the supplement of paper PMC10567573
